Article PMC9482650, “Quantitative fragmentomics allow affinity mapping of interactomes” (Nature Communications, 2022)

target: T1, DLG3_1, Q92796; test: holdup assay; design: key: below the threshold = too weak to quantify, mostly under pKd 3.1 to 4; details: plain residues with an end cap or a label only (N-terminal biotin on a linker: ado-ado)
T1 sequence (Q92796 125-227, limits assumed, looked up): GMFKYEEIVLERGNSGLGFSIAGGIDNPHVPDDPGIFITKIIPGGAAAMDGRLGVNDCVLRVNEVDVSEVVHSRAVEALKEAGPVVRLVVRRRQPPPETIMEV

Binder	pKd
VRPGVKESLV [SCN4A, P35499]	4.5

target: DLG4_2, P78352; test: holdup assay; design: key: below the threshold = too weak to quantify, mostly under pKd 3.1 to 4; details: plain residues with an end cap or a label only (N-terminal biotin on a linker: ado-ado)
Sequence (P78352 155-259): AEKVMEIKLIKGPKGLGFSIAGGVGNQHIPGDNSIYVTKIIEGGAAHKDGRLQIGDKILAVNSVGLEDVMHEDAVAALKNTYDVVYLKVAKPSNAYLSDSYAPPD

Binder	pKd
VRPGVKESLV [SCN4A, P35499]	5.71

target: DLG4_3, P78352; test: holdup assay; design: key: below the threshold = too weak to quantify, mostly under pKd 3.1 to 4; details: plain residues with an end cap or a label only (N-terminal biotin on a linker: ado-ado)
Sequence (P78352 306-403): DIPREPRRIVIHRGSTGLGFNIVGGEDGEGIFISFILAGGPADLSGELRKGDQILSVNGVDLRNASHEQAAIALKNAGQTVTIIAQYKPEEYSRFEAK

Binder	pKd
VRPGVKESLV [SCN4A, P35499]	4.39

target: T2, FRMPD1, Q5SYB0; test: holdup assay; design: key: below the threshold = too weak to quantify, mostly under pKd 3.1 to 4; details: plain residues with an end cap or a label only (N-terminal biotin on a linker: ado-ado)
T2 sequence (Q5SYB0 52-145, limits assumed, looked up): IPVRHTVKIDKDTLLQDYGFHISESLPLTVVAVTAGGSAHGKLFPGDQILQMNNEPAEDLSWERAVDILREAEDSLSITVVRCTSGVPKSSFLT

Binder	pKd
VRPGVKESLV [SCN4A, P35499]	below the threshold

target: FRMPD2_1, Q68DX3; test: holdup assay; design: key: below the threshold = too weak to quantify, mostly under pKd 3.1 to 4; details: plain residues with an end cap or a label only (N-terminal biotin on a linker: ado-ado)
Sequence (Q68DX3 770-861): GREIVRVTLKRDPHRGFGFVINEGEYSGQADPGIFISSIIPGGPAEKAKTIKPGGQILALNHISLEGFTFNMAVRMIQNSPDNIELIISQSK

Binder	pKd
VRPGVKESLV [SCN4A, P35499]	below the threshold

target: GRIP2_3, Q9C0E4; test: holdup assay; design: key: below the threshold = too weak to quantify, mostly under pKd 3.1 to 4; details: plain residues with an end cap or a label only (N-terminal biotin on a linker: ado-ado)
Sequence (Q9C0E4 238-339): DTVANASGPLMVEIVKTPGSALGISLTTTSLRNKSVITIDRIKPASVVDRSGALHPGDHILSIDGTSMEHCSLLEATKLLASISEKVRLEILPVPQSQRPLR

Binder	pKd
VRPGVKESLV [SCN4A, P35499]	below the threshold

target: HTRA1, Q92743; test: holdup assay; design: key: below the threshold = too weak to quantify, mostly under pKd 3.1 to 4; details: plain residues with an end cap or a label only (N-terminal biotin on a linker: ado-ado)
Sequence (Q92743 360-477): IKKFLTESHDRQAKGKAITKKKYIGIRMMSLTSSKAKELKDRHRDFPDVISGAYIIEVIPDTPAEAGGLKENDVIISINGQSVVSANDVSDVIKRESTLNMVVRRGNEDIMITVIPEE

Binder	pKd
VRPGVKESLV [SCN4A, P35499]	3.89

target: HTRA2, O43464; test: holdup assay; design: key: below the threshold = too weak to quantify, mostly under pKd 3.1 to 4; details: plain residues with an end cap or a label only (N-terminal biotin on a linker: ado-ado)
Sequence (O43464 355-458): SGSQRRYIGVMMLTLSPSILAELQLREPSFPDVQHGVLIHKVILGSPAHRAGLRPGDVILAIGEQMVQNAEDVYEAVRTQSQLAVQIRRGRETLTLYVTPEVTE

Binder	pKd
VRPGVKESLV [SCN4A, P35499]	below the threshold

target: IL16_1, Q14005; test: holdup assay; design: key: below the threshold = too weak to quantify, mostly under pKd 3.1 to 4; details: plain residues with an end cap or a label only (N-terminal biotin on a linker: ado-ado)
Sequence (Q14005 210-306): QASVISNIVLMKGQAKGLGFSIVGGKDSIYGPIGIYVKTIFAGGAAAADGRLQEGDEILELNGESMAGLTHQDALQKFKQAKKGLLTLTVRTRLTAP

Binder	pKd
VRPGVKESLV [SCN4A, P35499]	4.78

target: IL16_3, Q14005; test: holdup assay; design: key: below the threshold = too weak to quantify, mostly under pKd 3.1 to 4; details: plain residues with an end cap or a label only (N-terminal biotin on a linker: ado-ado)
Sequence (Q14005 1107-1207): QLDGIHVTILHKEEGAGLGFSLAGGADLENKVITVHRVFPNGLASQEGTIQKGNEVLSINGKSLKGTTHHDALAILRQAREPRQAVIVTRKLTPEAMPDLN

Binder	pKd
VRPGVKESLV [SCN4A, P35499]	below the threshold

target: IL16_4, Q14005; test: holdup assay; design: key: below the threshold = too weak to quantify, mostly under pKd 3.1 to 4; details: plain residues with an end cap or a label only (N-terminal biotin on a linker: ado-ado)
Sequence (Q14005 1229-1329): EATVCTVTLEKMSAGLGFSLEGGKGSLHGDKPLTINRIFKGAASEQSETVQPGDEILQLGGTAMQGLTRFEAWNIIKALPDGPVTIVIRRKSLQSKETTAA

Binder	pKd
VRPGVKESLV [SCN4A, P35499]	below the threshold

target: Inadl_4, Q8NI35; test: holdup assay; design: key: below the threshold = too weak to quantify, mostly under pKd 3.1 to 4; details: plain residues with an end cap or a label only (N-terminal biotin on a linker: ado-ado)
Sequence (Q8NI35 547-651): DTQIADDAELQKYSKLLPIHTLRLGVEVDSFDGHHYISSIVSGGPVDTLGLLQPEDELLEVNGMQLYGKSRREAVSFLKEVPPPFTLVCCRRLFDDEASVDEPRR

Binder	pKd
VRPGVKESLV [SCN4A, P35499]	below the threshold

target: Inadl_8, Q8NI35; test: holdup assay; design: key: below the threshold = too weak to quantify, mostly under pKd 3.1 to 4; details: plain residues with an end cap or a label only (N-terminal biotin on a linker: ado-ado)
Sequence (Q8NI35 1425-1530): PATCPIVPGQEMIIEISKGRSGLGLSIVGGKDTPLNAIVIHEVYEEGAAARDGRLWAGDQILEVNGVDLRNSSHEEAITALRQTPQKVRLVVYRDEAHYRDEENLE

Binder	pKd
VRPGVKESLV [SCN4A, P35499]	4.15

target: LIMK2, P53671; test: holdup assay; design: key: below the threshold = too weak to quantify, mostly under pKd 3.1 to 4; details: plain residues with an end cap or a label only (N-terminal biotin on a linker: ado-ado)
Sequence (P53671 143-248): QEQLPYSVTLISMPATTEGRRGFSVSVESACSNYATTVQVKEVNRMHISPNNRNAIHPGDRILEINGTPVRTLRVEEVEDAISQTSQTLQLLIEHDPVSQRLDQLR

Binder	pKd
VRPGVKESLV [SCN4A, P35499]	below the threshold

target: T3, LIN7B, Q9HAP6; test: holdup assay; design: key: below the threshold = too weak to quantify, mostly under pKd 3.1 to 4; details: plain residues with an end cap or a label only (N-terminal biotin on a linker: ado-ado)
T3 sequence (Q9HAP6 88-185, limits assumed, looked up): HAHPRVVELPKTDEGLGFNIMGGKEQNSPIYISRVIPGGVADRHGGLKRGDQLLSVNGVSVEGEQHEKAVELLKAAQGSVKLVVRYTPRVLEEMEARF

Binder	pKd
VRPGVKESLV [SCN4A, P35499]	4.04

target: T4, LNX2_2, Q8N448; test: holdup assay; design: key: below the threshold = too weak to quantify, mostly under pKd 3.1 to 4; details: plain residues with an end cap or a label only (N-terminal biotin on a linker: ado-ado)
T4 sequence (Q8N448 334-432, limits assumed, looked up): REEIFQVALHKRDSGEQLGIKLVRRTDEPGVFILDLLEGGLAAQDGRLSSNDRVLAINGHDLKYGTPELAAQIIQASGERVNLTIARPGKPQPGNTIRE

Binder	pKd
VRPGVKESLV [SCN4A, P35499]	3.91

target: T5, MPP2, Q14168; test: holdup assay; design: key: below the threshold = too weak to quantify, mostly under pKd 3.1 to 4; details: plain residues with an end cap or a label only (N-terminal biotin on a linker: ado-ado)
T5 sequence (Q14168 180-250, limits assumed, looked up): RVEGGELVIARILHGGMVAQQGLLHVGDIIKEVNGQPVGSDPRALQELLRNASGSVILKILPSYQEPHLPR

Binder	pKd
VRPGVKESLV [SCN4A, P35499]	below the threshold

target: NHERF4_1, Q86UT5-2; test: holdup assay; design: key: below the threshold = too weak to quantify, mostly under pKd 3.1 to 4; details: plain residues with an end cap or a label only (N-terminal biotin on a linker: ado-ado)
Sequence (Q86UT5 other isoform, or with tags, fused parts or gaps): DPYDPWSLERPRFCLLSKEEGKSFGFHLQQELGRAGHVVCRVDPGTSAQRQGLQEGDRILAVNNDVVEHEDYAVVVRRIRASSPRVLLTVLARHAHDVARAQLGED

Binder	pKd
VRPGVKESLV [SCN4A, P35499]	3.76

target: PARD3_3, Q8TEW0; test: holdup assay; design: key: below the threshold = too weak to quantify, mostly under pKd 3.1 to 4; details: plain residues with an end cap or a label only (N-terminal biotin on a linker: ado-ado)
Sequence (Q8TEW0 582-685): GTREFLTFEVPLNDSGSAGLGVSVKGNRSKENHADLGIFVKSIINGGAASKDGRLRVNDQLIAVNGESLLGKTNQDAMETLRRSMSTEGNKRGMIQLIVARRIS

Binder	pKd
VRPGVKESLV [SCN4A, P35499]	below the threshold

target: T6, PCLO, Q9Y6V0; test: holdup assay; design: key: below the threshold = too weak to quantify, mostly under pKd 3.1 to 4; details: plain residues with an end cap or a label only (N-terminal biotin on a linker: ado-ado)
T6 sequence (Q9Y6V0 4491-4600, limits assumed, looked up): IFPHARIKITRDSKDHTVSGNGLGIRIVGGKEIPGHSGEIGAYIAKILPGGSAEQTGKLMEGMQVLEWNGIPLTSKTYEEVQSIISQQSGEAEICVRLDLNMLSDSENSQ

Binder	pKd
VRPGVKESLV [SCN4A, P35499]	below the threshold

target: PDLIM1, O00151; test: holdup assay; design: key: below the threshold = too weak to quantify, mostly under pKd 3.1 to 4; details: plain residues with an end cap or a label only (N-terminal biotin on a linker: ado-ado)
Sequence (O00151 1-87): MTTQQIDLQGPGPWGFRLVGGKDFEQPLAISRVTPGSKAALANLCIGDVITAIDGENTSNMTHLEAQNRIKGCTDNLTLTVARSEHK

Binder	pKd
VRPGVKESLV [SCN4A, P35499]	below the threshold

target: T7, PDZRN3_1, Q9UPQ7; test: holdup assay; design: key: below the threshold = too weak to quantify, mostly under pKd 3.1 to 4; details: plain residues with an end cap or a label only (N-terminal biotin on a linker: ado-ado)
T7 sequence (Q9UPQ7 244-349, limits assumed, looked up): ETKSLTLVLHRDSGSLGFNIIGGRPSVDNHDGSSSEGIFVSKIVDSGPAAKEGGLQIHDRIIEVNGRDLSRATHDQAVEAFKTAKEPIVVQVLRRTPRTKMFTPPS

Binder	pKd
VRPGVKESLV [SCN4A, P35499]	4.38

target: T8, RHPN1, Q8TCX5; test: holdup assay; design: key: below the threshold = too weak to quantify, mostly under pKd 3.1 to 4; details: plain residues with an end cap or a label only (N-terminal biotin on a linker: ado-ado)
T8 sequence (Q8TCX5 508-602, limits assumed, looked up): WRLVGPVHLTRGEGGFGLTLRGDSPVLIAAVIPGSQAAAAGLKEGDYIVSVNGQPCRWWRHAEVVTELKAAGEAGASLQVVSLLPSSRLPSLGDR

Binder	pKd
VRPGVKESLV [SCN4A, P35499]	4.33

target: T9, SNTA1, Q13424; test: holdup assay; design: key: below the threshold = too weak to quantify, mostly under pKd 3.1 to 4; details: plain residues with an end cap or a label only (N-terminal biotin on a linker: ado-ado)
T9 sequence (Q13424 82-180, limits assumed, looked up): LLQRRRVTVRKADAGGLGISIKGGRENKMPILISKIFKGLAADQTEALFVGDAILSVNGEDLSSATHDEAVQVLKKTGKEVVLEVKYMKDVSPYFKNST

Binder	pKd
VRPGVKESLV [SCN4A, P35499]	4.76

target: T10, SNTG2, Q9NY99; test: holdup assay; design: key: below the threshold = too weak to quantify, mostly under pKd 3.1 to 4; details: plain residues with an end cap or a label only (N-terminal biotin on a linker: ado-ado)
T10 sequence (Q9NY99 68-166, limits assumed, looked up): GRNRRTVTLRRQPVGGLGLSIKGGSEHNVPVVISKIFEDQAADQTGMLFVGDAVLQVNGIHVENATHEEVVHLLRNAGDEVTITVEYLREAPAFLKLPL

Binder	pKd
VRPGVKESLV [SCN4A, P35499]	4.77

target: SNX27, Q96L92; test: holdup assay; design: key: below the threshold = too weak to quantify, mostly under pKd 3.1 to 4; details: plain residues with an end cap or a label only (N-terminal biotin on a linker: ado-ado)

Binder	pKd
VRPGVKESLV [SCN4A, P35499]	5.28

target: T11, TX1BP3, O14907; test: holdup assay; design: key: below the threshold = too weak to quantify, mostly under pKd 3.1 to 4; details: plain residues with an end cap or a label only (N-terminal biotin on a linker: ado-ado)
T11 sequence (O14907 10-122, limits assumed, looked up): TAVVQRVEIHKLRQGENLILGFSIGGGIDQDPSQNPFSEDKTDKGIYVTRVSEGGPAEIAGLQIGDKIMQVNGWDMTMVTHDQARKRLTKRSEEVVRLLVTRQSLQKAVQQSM

Binder	pKd
VRPGVKESLV [SCN4A, P35499]	4.73
